Experimental data as given in paper PMC4725963.

Target: CdiA-CT_(PA0041), C-terminal (CT) toxin domain of CdiA_(PA0041) of P. aeruginosa PAO1 (P. aeruginosa PAO1)

CdiI_(PA2462)-His6, immunity protein of the cdi_(PA2462) locus of P. aeruginosa PAO1 (natural protein)
decrease of CFU/ml of E. coli co-producing CdiA-CT (PA0041) (1% arabinose) with the non-cognate CdiI (PA2462)-His6 (1 mM IPTG), after 6 h of culture: no protection: 6 logs
